Patent US20210040189A1 (Amgen, published 2021)

Tests used:
[1] = biological target: T1, human DKK1 (human, UniProt O94907 32-266); assay: BiaCore 2000
T1 construct: also called huDKK1; hDKK1
T1 sequence: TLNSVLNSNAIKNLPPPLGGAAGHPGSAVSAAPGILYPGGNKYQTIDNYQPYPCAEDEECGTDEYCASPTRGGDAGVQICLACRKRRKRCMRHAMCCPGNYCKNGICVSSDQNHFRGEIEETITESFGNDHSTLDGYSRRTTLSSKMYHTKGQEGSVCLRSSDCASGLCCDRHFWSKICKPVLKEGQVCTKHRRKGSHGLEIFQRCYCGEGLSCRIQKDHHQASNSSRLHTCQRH
Source text: BiaCore allowed us to determine the kd of the selected antibodies.

[2] = biological target: T1, human DKK1; assay: cell-based or functional assay

| Binder | koff [1] | ST2 EC50 [2] | TCF EC50 [2] |
| --- | --- | --- | --- |
| 5.78.1 (antibody, V domains shown, Fully human hybridoma IgG, kappa (Vk)) VH: QVQLVESGGGVVQPGRSLRLSCAASGFTFSSYGMHWVRQAPGKGLEWVAVILYDGSDNYYADSVKGRFTISRDNSKNTLYLQMNSLRAEDTAVYYCAREGIAVAGDYYYYGMDVWGQGTTVTVSS VL: EIVLTQSPGTLSVSPGERATLSCRASQSVSSSYLAWYQQKPGQAPRLLIYGASGRATGIPDRFSGSGSGTDFILTISRLEPEDFAVYYCQQYGSSFTFGGGTKVEIK | 0.000191 s⁻¹ | 5.7 nM | 3.75 nM |
| 2.47.1 (antibody, V domains shown, Fully human hybridoma IgG, kappa (Vk)) VH: QVQLQESGPGLVKPSQTLSLTCTVSGGSISSGGYYWSWIRQHPGKGLEWIGDIYYSGSTYYNPSLKSRVTISVDTSKNQFSLKLSSVTAADTAVYYCARDRAYGDYGGDYYYGMDVWGQGTTVTVSS VL: DIVMTQTPLSLPVTPGEPASISCRSSQSLLDSDDGDTYLDWYLQKPGQSPQLLIYTLSYRASGVPDRFSGSGSGTDFTLKISRVEAEDVGVYYCMQRIEFPFTFGPGTKVDIK | 0.00092 s⁻¹ |  | 60.7 nM |
| 5.23.1 (antibody, V domains shown) VH: QVQLVESGGGVVQPGRSLRLSCAASGFTFSSYGMHWVRQAPGKGLEWVAVIWCDGSNKYYADSVKGRFTISRDSSKNTLYLQMNSLRAEDTAVYYCARGGYGSGSYEDYYYGMDVWGQGTTVTVSS VL: not shown | 0.000181 s⁻¹ | 4.29 nM | 1.01 nM |
| 2.4.1 (antibody, V domains shown, Fully human hybridoma IgG, kappa (Vk)) VH: QVQLMQSGAEVKKPGASVKVSCKASGYTFTSYGISWVRQAPGQGLEWMGWISADNGHTNYAQKLQGRVTMTTDTSTSTAYMELRSLRSDDTAVYYCARDGELLNYYYYYGMDVWGQGTTVTVSS VL: DIQMTQSPSSLSASVGDRVTITCRASQGIRDDLGWFQQKPGKAPKRLIYAASSLQSGVPSRFSGSGSGTEFTLTISSLQPEDFATYYCLQHNSYPCSFGQGTKLEFK | 0.0006 s⁻¹ | 17.2 nM | 38.6 nM |
| 5.17.1 (antibody, V domains shown, Fully human hybridoma IgG, kappa (Vk)) VH: QVQLQESGPGLVKPSETLSLTCTVSGGSISSYYWSWIRQPPGKGLEWIGYIYYSGNTNYNPSLKSRVTISVDTSKNQFSLKLRSVTAADTAVYYCARYNWNNDLFDYWGQGTLVTVSS VL: DIQMTQSPSSLSASVGDRVTITCQASQDINNYLNWYQQKPGKAPNLLIYDASNLETGVPSRFSGSGSGTDFTFTISSLQPADIATYYCQQYDDFPLTFGGGTKVEIK | 0.000303 s⁻¹ | 8.24 nM | 3.48 nM |
| 5.31.1 (antibody, V domains shown, Fully human hybridoma IgG, kappa (Vk)) VH: QVQLVESGGGVVQPGRSLRLSCAASGFTFSSYGMHWVRQAPGKGLEWVAVIWYDGRNKYYADSVKGRFTISRDNSKNTLYLQMNSLRAEDTAVYYCARGGGAVADYNYYYGMDVWGQGTTVTVSS VL: DIQVTQSPSSLSASVGDRVTITCQASQDISNYLNWYQQKPGKAPKFLIYDASNLEAGVPSRFSGSGSGTDFTFTISSLQPEDIATYYCQQYDNLPLTFGGGTKVEIK | 0.000105 s⁻¹ | 10.4 nM | 5.29 nM |
| 5.40.1 (antibody, V domains shown, Fully human hybridoma IgG, kappa (Vk)) VH: QVLLQESGPGLVKPSETLSLTCTVSGGSISSYYWSWIRQTPGKGLEWIGYVYYSGSTSYNPSLKSRVTISMYTSKTEFSLKLSSVTAADTAVYYCARYNWNNDLFDYWGQGTLVTVSS VL: DIRLTQSPSSLSASVGDRVTITCQASQDISNYLNWYQQEPGKAPKLLIYDASNLETGVPSRFSGSGSGTDFTFTISSLQPEDIATYYCQQYDNFPLTFGGGTKVEIK | 0.000281 s⁻¹ | 7.24 nM | 3.75 nM |
| 5.85.1 (antibody, V domains shown) VH: EVQLVQSGAEVKKPGESLKISCKVSGYSFTTYWIGWVRQMPGKGLDWMGIIYPGDSDTRYSPSFQGQVTISADKSISTAYLQWSSLKASDTAMYYCARQGIAFDYWGQGTLVTVSS VL: QSVLTQPPSVSGAPGQRVTISCTGSSSNIGAGYDVHWYQQLPRTAPKLLIYGNSNRPSGVPDRFSDSKSGTSASLAITGLQAEDEADYYCQSYDSSLSVIFGGGTKLTVL |  | 10.6 nM | 4.53 nM |
| 2.20.1 (antibody, V domains shown, Fully human hybridoma IgG, kappa (Vk)) VH: QVQLVESGGGVVQPGRSLRLSCAASGFTFSSYGMHWVRQAPGKGLEWVAVISYDGSDKYYADSVKGRFTISRDNSKNTLYLQMNSLRAEDTAVYYCARDQWGGSPAGPWGQGTLVTVSS VL: DIVMTQTPLSLSVIPGQPASISCKSSQSLLHSDGKTYLYWYLQRPGQPPQLLIYEVSNRFSGVPHRLSGSGSGTDFTLKISRVEAEDVGVYYCMQSIQVPWTFGQGTKVEIK | 0.00024 s⁻¹ | 34.7 nM | 10.7 nM |
| 2.41.1 (antibody, V domains shown, Fully human hybridoma IgG, kappa (Vk)) VH: QVQLVESGGGVVQPGRSLRLSCAASGFTFSSYGMHWVRQAPGKGLEWVAVISYDGSDKYYADSVKGRFTISRDNSKNTLYLQMNSLRAEDTAVYYCARAGYSLYYYYGMDVWGQGTTVTVSS VL: DIVMTQTPLSLSVTPGQPASISCKSSQSLLHSDGKTYLYWYLQKPGQPPQLLIYEVSNRFSGVPDRFSGSGSGTDFTLKISRVEAEDVGVYYCMQSKQLPFTFGPGTKVDIK | 0.0013 s⁻¹ | 89.1 nM | 32.1 nM |
| 5.65.1 (antibody, V domains shown, Fully human hybridoma IgG, lambda (Vl)) VH: EVQLLESGGGLVQPGGSLRLSCAASGFTSGNYAMSWVRQAPGKGLEWVSAISGGGGTTYYADSVEGRFTISRDNSKNTLYLQLNSLRAEDTAVYYCAKEFGELEPRFDYWGQGTLVTVSS VL: SYVLTQPPSVSVAPGQTARITCGGNNIGSKSVHWYQQKPGQAPVLVVYDDSDRPSGIPERFSGSNSGNTATLTISRVEAGDEADYYCQVLDSSSDHVIFGGGTKLTVL | 0.000525 s⁻¹ | 5.87 nM | 4.21 nM |
| 5.76.1 (antibody, V domains shown, Fully human hybridoma IgG, lambda (Vl)) VH: QLQLQESGPGLVKPSETLSLTCTVSGGSISSSNYYWGWIRQPPGKGLEWIGTIYYSGSTYYTPSLKSRVTISVDTSKNQFSLKLSSVTAADTAVYYCARERAIAVAAIVFFDYWGQGTLVTVSS VL: SYVLTQPPSVSVAPGQTARITCGGNNIGSESVHWYQQKPGQAPVLVVYDDSDRPSGIPERFSGSNSGNTATLTISRVEAGDEADYYCQVWDSSNDHVVFGGGTKLTVL | 0.000241 s⁻¹ | 4.09 nM | 2.55 nM |
